Experimental data published in publication PMC13100509, “A milestone in C4 carbon concentration mechanism evolution: structural remodeling of NADP-malic enzyme in Poaceae” (Molecular Biology and Evolution, 2026).
“And” between values parts separate entries of the source, which are not always exact repeats. Equal values may be shown once. Values belong to the molecule of their own block, whether it stands above or below them.

Assays:
[1] = target: Cyt1-NADP-ME from maize extracts (maize (endogenous in maize etiolated leaves and roots)); test: native gel or EMSA; native PAGE (7%) of maize extracts of etiolated leaves and roots; in-gel NADP-ME activity assay, active bands excised and identified by mass spectrometry; mobility compared with the recombinant proteins
[2] = target: Cyt2-NADP-ME from maize extracts (maize (endogenous in maize etiolated leaves and roots)); test: as above
[3] = target: maize nonC4-NADP-malic enzyme, recombinant wild type (maize (Zea mays)); test: cryo-EM structure; single-particle cryo-EM of His-tagged proteins, 0.2 to 0.5 mg/ml, 20 mM Tris-HCl, 5 mM MgCl2, 40 mM pyruvate, 2 mM NADP, pH 8.0; oligomeric state from the numbers of particles
[4] = target: maize nonC4-NADP-malic enzyme, recombinant wild type (maize (Zea mays)); test: native gel or EMSA; native PAGE (6% or 7%) of purified recombinant proteins, 100 V, 4 °C; Coomassie staining or in-gel NADP-ME activity assay; oligomeric state from mobility against native markers
[5] = target: maize nonC4-NADP-malic enzyme, recombinant wild type (maize (Zea mays)); test: as above; remark: listed apart in the source
[6] = target: maize nonC4-NADP-malic enzyme, recombinant wild type (maize (Zea mays)); test: AUC; sedimentation velocity of recombinant proteins; 20 mM Tris-HCl pH 7.0 or 8.0, 5 mM MgCl2; 1.1 mg/ml (16 uM); 20 °C, 35,000 rpm; c(s) model in SEDFIT; self-association, dimers and tetramers
[7] = target: the molecule itself; test: as above
[8] = target: the molecule itself; test: native gel or EMSA; native PAGE (7%) of maize extracts of etiolated leaves and roots; in-gel NADP-ME activity assay, active bands excised and identified by mass spectrometry; mobility compared with the recombinant proteins

- stoichiometry N [1]: 4
Molecule: Cyt1-NADP-ME from maize extracts (enzyme)

- stoichiometry N [2]: 4
Molecule: Cyt2-NADP-ME from maize extracts (enzyme)

Further lines, the molecule ahead of its results:

Molecule: maize nonC4-NADP-malic enzyme, recombinant wild type
- percent tetramers [3]: 10%
- stoichiometry N [3]: 2
- stoichiometry N [4]: 4
- stoichiometry N [5]: 2
- stoichiometry N [6]: 2 and 4

B1: maize C4-NADP-malic enzyme, recombinant wild type (enzyme, maize (Zea mays), UniProt P16243 63-636, looked up)
chain: MVSNAETETEKEQEEAAAASEELPVMPWATSVASGYTLLRDPHHNKGLAFTEEERDGHYLRGLLPPAVLSQELQIKKFMNTLRQYQTPLQRYIAMMNLQETDERLFYKLLIDNVVELLPFVYTPTVGEACQKYGSIFGRPQGLYVSLKDKGKVLEVLRNWPHRNIQVICVTDGERILGLGDLGCQGMGIPVGKLALYTALGGVDPSVCLPITIDVGTNNEFLLNDEFYIGLRQKRATGEEYDELIEEFMSAVKQFYGEKVLIQFEDFANHNAFDLLEKYSKSHLVFNDDIQGTASVVLAGLLAALKMVGGTLAEQTYLFLGAGEAGTGIAELIALEISKQTNAPIEECRKKVWLVDSKGLIVDSRKGSLQPFKKPWAHEHEPLKTLYDAVQSIKPTVLIGTSGVGRTFTKEIIEAMSSFNERPIIFSLSNPTSHSECTAEQAYTWSQGRSIFASGSPFAPVEYEGKTFVPGQSNNAYIFPGLGLGLVISGAVRVHEDMLLAASKALADQATQDNFEKGSIFPPFTSIRKISAHIAAAVAGKAYELGLATRLPPPSDLVKYAENCMYTPVYRNYR
notes: C4-NADP-malic enzyme (ZmC4-NADP-ME), plastidic C4 isoform of maize; construct of Alvarez et al. 2019; Vector pET16b::ZmC4-NADP-ME (Alvarez et al. 2019); also called C4-NADP-ME; ZmC4-NADP-ME; source: E. coli Rosetta2 (DE3) or ArcticExpress (DE3), purified (Ni-NTA)
- stoichiometry N [7]: 4

B2: C4-NADP-ME from maize extracts (enzyme, UniProt P16243 63-636, looked up)
chain: B1 chain
notes: C4-NADP-malic enzyme, plastidic C4 isoform of maize, identified by mass spectrometry in an active band of a native gel; source: endogenous, extracts of maize etiolated leaves and roots
- stoichiometry N [8]: 4
